Consider 2 molecules from publication PMC6174329, “Functional Characterization of Arabidopsis PHL4 in Plant Response to Phosphate Starvation”.

The target in data set [1] is T1, MBP-PHL4-His (Arabidopsis thaliana? (Columbia-0?), UniProt Q8GXC2 1-397).
T1 sequence: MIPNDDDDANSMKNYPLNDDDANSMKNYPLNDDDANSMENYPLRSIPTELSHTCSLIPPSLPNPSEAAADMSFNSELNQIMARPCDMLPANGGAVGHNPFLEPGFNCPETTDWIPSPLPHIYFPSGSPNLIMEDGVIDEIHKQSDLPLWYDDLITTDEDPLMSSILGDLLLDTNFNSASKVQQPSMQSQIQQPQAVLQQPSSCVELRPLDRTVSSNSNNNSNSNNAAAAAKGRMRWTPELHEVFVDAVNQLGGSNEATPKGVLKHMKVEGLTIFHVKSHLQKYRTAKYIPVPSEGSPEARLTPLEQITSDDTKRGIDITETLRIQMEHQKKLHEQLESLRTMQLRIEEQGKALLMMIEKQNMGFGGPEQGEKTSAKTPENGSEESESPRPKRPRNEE
Kind of data set: EMSA; 4 ug protein, 10 fmol probe; EMSA as described by Sun et al. (2016); buffer, salt, pH and temperature not given; 4 ug MBP-PHL4, 10 fmol biotin probe. As to conditions: protein: recombinant; tags: N-terminal MBP; C-terminal 6xHis; chain copies: 2; label: biotin (on F strand); blunt. A general note: Mobility shift assays separate free from complexed probe on a gel.

Data set [2] addresses T1, MBP-PHL4-His. Kind of data set: competition; unlabeled probe at 200:1, 800:1 and 1200:1 molar excess over labeled probe; EMSA as described by Sun et al. (2016); buffer, salt, pH and temperature not given; 4 ug MBP-PHL4, 10 fmol biotin probe. As to conditions: protein: recombinant; tags: N-terminal MBP; C-terminal 6xHis; chain copies: 2; blunt.

B1: 2xP1BS probe (dsDNA)
DNA 1: ATTAACGAATATTCCGTACAATTAACGAATATTCCGTACA
DNA 2: TGTACGGAATATTCGTTAATTGTACGGAATATTCGTTAAT
Take B1: in the data set with MBP-PHL4-His [1], the binding result is given as “binds”.

B2: 2xP1BS unlabeled competitor (dsDNA)
DNA 1: B1 DNA 1
DNA 2: B1 DNA 2
Consider B2, for which the binding result with MBP-PHL4-His [2] is recorded as “binds”.
